B1: TCN-550 (5096_F06) (antibody, V domains shown)
VH: QVQLQESGPGLVKPSETLSLTCTVSGASINSHYWSWIRQPPGKGLEWIGYVYYSGSTTYNPSLKSRVTLSVDTSKNQFSLNLSSVTAADTAFYYCARHPYDVLTGSGDWFDPWGQGTLVTVSS
VL: SYVLTQAPSVSVAPGQTARITCGGNAIGSKKVHWYQHKAGQAPVLVVYDDTDRPSGIPERFSGSNSWSTATLTINRVEAGDEADYYCQVWDFTIDHVVFGGGTKLTVL
B2: TCN-552 (5249_I23) (antibody, V domains shown)
VH: QVQVVQSGAEVKKPGSSVRVSCQASGGTFMNYAIIWVRRAPGQGLEWMGGIIPVFPTPNYAQMFQGRVTISTDESRSTSFLELTNLRYEDTAVYYCARRIYHGGNSGFDFWGQGTLVTVSS
VL: EIVLTQSPATLSLSPGERATLSCRASQSVGNYLAWYQQKPGQAPRLLIYDSSNRAPGIPARFSGSGSGTDFTLTISSLAPEDFAVYYCQQRSKWPPMYSFGHGTKLEIK
B3: TCN-553 (5261_C18) (antibody, V domains shown)
VH: QVQVVQSGTEVKKPGSSVKVSCQTSGGRFMSYAITWVRQAPGQGLEWMGGIVPVFGTANYAQKFQGRVTITTDDSTRTAYMELSSLRSEDTAVYYCGFRYGSGYGFDSWGQGTLVTVSS
VL: EIVLTQSPGTLSLSPGERATLSCRASQSVSSSYLAWYQKKPGQAPRLLIYGASTRATGIPDRFTGSGSGTDFTLSISRLEPEDFAVYYCQHFGTSVFTFGGGTKVEIK
B4: TCN-557 (5081_A04) (antibody, V domains shown)
VH: QVQLVQSGAEVKKPGASVKVSCKASGHTFTGYYIHWVRQAPGQGLEWMGWINPDSGATSSAQNFQGRVTMTGDTSSSTAYMELSRLSFDDTAVYYCARVLFTSPFDFWGEGTLVTVSS
VL: QAVVTQEPSLAVSPGGTVTLTCGSSTGAVTRGHYPYWFQQKPGQAPRALIYDSAGNRHSWTPARFSGSLLGGKAALTLSGAQPEDEAEYYCLLSYSGVWVFGGGTKLTVL
B5: TCN-522 (3212_I12) (antibody, V domains shown)
VH: QVQLQQWGAGLLKPSETLSLTCTVSGGSLTDYSWNWIRQPPGKGLEWIGDTLHNGYTNYNPSLRGRVSISIDTSKNQVSLRLTSVTAADTALYYCARGSGGYGGFDYFGKLRTWDFWGQGTLVTVSS
VL: DIQLTQSPSSLSASVGDRVTITCRASQGIRNDLGWYQQKPGNAPKRLIFGASSLQSGVPSRFSGSGSGTEFTLTISSLQPEDFATYYCLQHNSYPYTFGQGTKLEIK
B6: TCN-527 (5086_C06) (antibody, V domains shown)
VH: QVQLQESGPGLVKPSETLSLNCAVSGGSISNYYWSWIRQPPGKGLEWIGYISYNGRPKYNPSLTSRVTISVDTSKDQFSLELRSVTAADTALYYCARETRFGELLSPYDAFEIWGQGTMVTVSS
VL: DIQMTQSPSSLSASVGDRVTMTCRASQNIRSYLNWYQQRPGTAPKLLIYAASTLHSGVPSRFSGGGSGTDFTLTINNLQPEDFASYYCQQSYDNPQTFGQGTKVEIK
B7: TCN-528 (5087_P17) (antibody, V domains shown)
VH: QVQLVQSGSEVKKPGASVKVSCKASGYTFTNYDINWIRQAPGQGLEWMGWINPNSGTTGSAQRFQGRVTITVDTSITTVYMELSSLRSDDTAIYYCARGRELLRLQHFLTDSQSERRDCFDPWGQGTLVTVSS
VL: DIQMTQSPSSLSASVGDRVTITCRANQDIGIYLNWYQQNPGKVPKLLLHGASSLQGGVPSRFSASGSGTDFTLTIHSLQPEDLATYYCQQSRRLPYTFGQGTRVELK
B8: TCN-538 (3206_O17) (antibody, V domains shown)
VH: QITLKESGPTLVKPTQTLTLTCVFSGFSLSITGVRVGWIRQPPGKALEWLALISWDDEKHYSPSLQSRLTITKDTSKNQVVLTMTNLDPVDTATYYCARSTDRGHVLRYFGWMLPGDAFDVWGQGTMVTVSS
VL: DIVMTQSPDFLPVSLGERATINCKSSQRVLYSSNNKNYLAWYQLKPGQPPKLIIYWASTRESGVPDRFSGSGSGTEFTLTISSLQAEDVAVYYCQQYYSRPYTFGQGTKLEIK
B9: TCN-539 (5056_A08) (antibody, V domains shown)
VH: QVQLVESGGGVVQPGRSLRLSCAASEITFITYAMHWVRQAPGKGLEWVALISDDGSNKFYADSVKGRFTISRDNSKNTLYLQMNSLRAEDTAAYYCAREGVYFDSGTYRGYFDYWGQETLVTVSS
VL: EIVLTQSPATLSLSPGERATLSCRASQSVSSYLAWYQQKPGQAPRLLIYDASNRATGIPARFSGSGSGTDFTLTISSLEPEDFAVYYCQQRSHWPPITFGQGTRLEIK
B10: TCN-540 (5060_F05) (antibody, V domains shown)
VH: QVQLVQSGGGVVQPGRSLRLSCAASGFTFSSYAMHWVRQAPGKGLEWVAIISYDGNDQYYTDSVKGRFTISRDSSKVYLQMHRLRPEDTAVYYCAKEFETSGYFHGSFDYWGQGILVTVSS
VL: QSALTQPASVSGSPGQSITISCTGTSSDVGGYNYVSWYQQHPGKAPKLLIYEVTNWPSGVSNRFSGSKSGNTASLTISGLQAEDEADYYCSSYAGSSTWVFGGGTRVTVL
B11: TCN-543 (5081_G23) (antibody, V domains shown)
VH: QVHLVQSGAEVRKPGDSVKVSCKTSGYTFSTYPVAWVRQVPGQGLEWMGWISTYNGNTNFAQNFQGRVTLTTDTTTNTAYMEVRSLKFDDTAVYYCARVEGSYRDFWNNQNRFDPWGQGTLVTVSS
VL: SYVLTQPPSVSVAPGQTARISCGGSNIGGKSVHWYQQKPGQAPVLVVYDDSGRPSGIPERFSGSNSGDTATLTISRVEAGDEADYFCQVWDNFGGVFGTGTKVTVL
B12: TCN-546 (5089_L08) (antibody, V domains shown)
VH: QVQLQQWGAGLLKPSETLSLTCGVYGGSLSDYYWSWIRQPPGKGLEWIGEINHSGGTNYNPSLKRRVTISVDTSKKQFSLKMNSVTAADTAVYYCARGTDPDTEVYCRAGNCAAFDFWGQGTLVTVSS
VL: EIVLTQSPGTLSLSPGERATLSCRASHFVIGRAVAWYQQKPGQAPRLLIYGASSRATGIPDRFSGSGSGTDFTLTISRLETEDFAVFYCQHYGSSPRYAFGQGTKLEIK

biological target: recombinant soluble homotrimeric HA, A/Netherlands/219/03 H7N7 (Influenza A virus A/Netherlands/219/03(H7N7)); assay: microarray, transfection SN IgG, trimeric HA; conditions: remark: other sources report otherwise

Binder | Trimeric HA Binding: RLU [RLU]
B1 | 3250
B2 | 7420
B3 | 7530
B4 | 53700

biological target: recombinant soluble homotrimeric HA of A/Hong Kong/1073/99 (H9N2) (Influenza A virus A/Hong Kong/1073/99 (H9N2)); assay: trimeric HA microarray, transfection supernatant set 2; conditions: remark: other sources report otherwise

Binder | Trimeric HA Binding: RLU [RLU]
B5 | 11800

biological target: recombinant soluble homotrimeric HA of A/Hong Kong/2108/03 (H9N2) (Influenza A virus A/HK/2108/2003(H9N2)); assay: as above; conditions: remark: other sources report otherwise

Binder | Trimeric HA Binding: RLU [RLU]
B5 | 203
B6 | 25500
B7 | 33600

biological target: T1, recombinant soluble homotrimeric HA of A/Wisconsin/67/05 (H3N2) (Influenza A virus A/Wisconsin/67/2005(H3N2)); assay: as above; conditions: remark: other sources report otherwise

Binder | Trimeric HA Binding: RLU [RLU]
B6 | 35800
B7 | 46000

biological target: T2, recombinant soluble homotrimeric HA of A/duck/Yangzhou/02/05 (H8N4) (Influenza A virus A/duck/Yangzhou/02/2005(H8N4)); assay: as above; conditions: remark: other sources report otherwise

Binder | Trimeric HA Binding: RLU [RLU]
B5 | 1650
B6 | 17900
B7 | 19800

biological target: recombinant soluble homotrimeric HA of A/northern shoveler/California/HKWF115/07 (H6) (Influenza A virus A/northern shoveler/California/HKWF115/2007(H6N1)); assay: as above; conditions: remark: other sources report otherwise

Binder | Trimeric HA Binding: RLU [RLU]
B5 | 54400
B6 | 19300
B7 | 28400

biological target: T3, recombinant soluble homotrimeric HA of A/swine/Ontario/01911-2/99 (H4N6) (Influenza A virus A/Swine/Ontario/01911-2/99 (H4N6)); assay: as above; conditions: remark: other sources report otherwise

Binder | Trimeric HA Binding: RLU [RLU]
B6 | 30100
B7 | 49200

biological target: recombinant soluble homotrimeric HA of A/California/4/09 (H1N1) (Influenza A virus A/California/04/2009(H1N1)); assay: trimeric HA microarray, transfection supernatant set 5; conditions: remark: other sources report otherwise

Binder | Trimeric HA Binding: RLU [RLU]
B8 | 16000
B9 | 1050
B10 | 984
B11 | 2340
B12 | 1080

biological target: recombinant soluble homotrimeric HA of A/Indonesia/5/05 (H5N1) (Influenza A virus A/Indonesia/5/2005(H5N1)); assay: as above; conditions: remark: other sources report otherwise

Binder | Trimeric HA Binding: RLU [RLU]
B8 | 13700
B9 | 8950
B10 | 2570
B11 | 1830
B12 | 40900

biological target: recombinant soluble homotrimeric HA of A/Netherlands/219/03 (H7N7) (Influenza A virus A/Netherlands/219/03(H7N7)); assay: as above; conditions: remark: other sources report otherwise

Binder | Trimeric HA Binding: RLU [RLU]
B8 | 4370
B9 | 15700
B10 | 4390
B11 | 12900
B12 | 3740

biological target: recombinant soluble homotrimeric HA of A/Solomon Islands/3/06 (H1N1) (Influenza A virus A/Solomon Islands/3/2006(H1N1)); assay: as above; conditions: remark: other sources report otherwise

Binder | Trimeric HA Binding: RLU [RLU]
B8 | 1960
B9 | 871
B10 | 1180
B11 | 43500

biological target: recombinant soluble homotrimeric HA of A/South Carolina/1/18 (H1N1) (Influenza A virus A/South Carolina/1/18 (H1N1)); assay: as above; conditions: remark: other sources report otherwise

Binder | Trimeric HA Binding: RLU [RLU]
B8 | 8430
B9 | 5330
B10 | 1360
B11 | 28300
B12 | 955

biological target: recombinant soluble homotrimeric HA of A/Vietnam/1203/04 (H5N1) (Influenza A virus A/VietNam/1203/2004(H5N1)); assay: as above; conditions: remark: other sources report otherwise

Binder | Trimeric HA Binding: RLU [RLU]
B8 | 52400
B9 | 53300
B10 | 42500
B11 | 33100
B12 | 47100

biological target: T1, recombinant soluble homotrimeric HA of …; assay: as above; conditions: remark: other sources report otherwise

Binder | Trimeric HA Binding: RLU [RLU]
B9 | 58800
B10 | 53000
B11 | 37000
B12 | 28500

biological target: recombinant soluble homotrimeric HA of A/chicken/Vietnam/NCVD-016/08 (H5N1) (Influenza A virus A/chicken/Vietnam/NCVD-016/2008(H5N1)); assay: as above; conditions: remark: other sources report otherwise

Binder | Trimeric HA Binding: RLU [RLU]
B8 | 2950
B9 | 3500
B10 | 1510
B11 | 5880
B12 | 2940

biological target: T2, recombinant soluble homotrimeric HA of …; assay: as above; conditions: remark: other sources report otherwise

Binder | Trimeric HA Binding: RLU [RLU]
B8 | 4060
B10 | 6080
B11 | 13100
B12 | 11400

biological target: T3, recombinant soluble homotrimeric HA of …; assay: as above; conditions: remark: other sources report otherwise

Binder | Trimeric HA Binding: RLU [RLU]
B8 | 3350
B11 | 2870
B12 | 4610

From patent US20150086555A1
